Laboratory results: patent US11571459B2, “Methods for treating cancer using PS-targeting antibodies with immuno-oncology agents” (ONCXERNA THERAPEUTICS, INC., priority 2017, dated 2023)
Where two headings read alike, the source gives them in different places.

Assays:
PS [1] = experiment: ELISA binding to PS-coated plates
Protocol: The 3G4 antibody was produced by immunizing mice with autologous, PS-positive endothelial cells, as reported in Ran et al., 2005. The 3G4 antibody was tested for binding to PS in a standard ELISA in the presence and absence of serum, and was initially characterized as being “serum-independent”, i.e., an antibody that binds to PS in the absence of serum.
In a follow-on study, the binding of the 2aG4 antibody to PS was tested in an ELISA in the presence of varying concentrations of human β2GPI.
These included binding to PS in ELISAs, FACS analyses using PS-positive cells and functional assays in the form of an NFAT surrogate ADCC bioassay (Larson et al., 2013).

tumors = experiment: Syngeneic and xenogeneic tumor models; assay type: in vivo, mice; conditions: wide range of studies
Protocol: The 3G4 antibody was purified to apparent homogeneity from the supernatant of the cultured hybridoma using a standard Protein A procedure.
In early studies in mice, it was calculated that molar ratios of β2GPI to antibody of between 0.12 and 0.25 were effective for anti-tumor activity, thus showing that high levels of β2GPI are not necessary for anti-tumor activity.

[2] = Administration to monkeys (safety); assay type: in vivo
[3] = test system: HER2-negative metastatic breast cancer; experiment: Bavituximab and paclitaxel in HER2-negative metastatic breast cancer; assay type: in vivo, human
From the text: Manageable infusion-related reactions were the most common AE related to bavituximab.

[4] = test system: previously untreated stage IV pancreatic cancer; experiment: Phase II (PPHM 1002) gemcitabine with or without bavituximab; assay type: in vivo, human; conditions: with gemcitabine
Protocol: The primary objective was to compare the OS of patients among the treatment arms. Secondary objectives included comparing PFS, ORR, DR and safety.
Gemcitabine (1000 mg/m^2) was given on days 1, 8, and 15 of each 28-day cycle (4 weeks) until disease progression or unacceptable toxicities. A total of 70 patients were enrolled to the study. In general, the patient population had very extensive disease burden, which may have reduced the response in both arms.
The levels of pre-treatment functional β2GPI ranged from 82.5 to 343.2 μg/ml for all patients. For these 31 patients, the mean level of pre-treatment functional β2GPI (219.2 μg/ml) was consistent with the average reported in the literature.

[5] = test system: previously treated non-squamous NSCLC
Protocol: The primary objective of this study was to compare the ORR (CR+PR) among the treatment arms. Secondary objectives included comparing PFS, DR, OS, safety and PK.
Additional blood draws were performed for these patients during Cycles 1 and 2 at specified time points.
Samples from the NSCLC Phase II trial of Example IX (PPHM 0902) were tested using the functional β2GPI assay of Example XII.

PS [6] = conditions: in the presence of serum; cited from earlier work
β2GPI = target: T1, β2GPI (Homo sapiens, UniProt P02749); experiment: Serum β2GPI levels after bavituximab, Phase Ib HCV study; assay type: in vivo; set-up: from tissue; host or cells: serum of human patients
T1 sequence (P02749 20-345): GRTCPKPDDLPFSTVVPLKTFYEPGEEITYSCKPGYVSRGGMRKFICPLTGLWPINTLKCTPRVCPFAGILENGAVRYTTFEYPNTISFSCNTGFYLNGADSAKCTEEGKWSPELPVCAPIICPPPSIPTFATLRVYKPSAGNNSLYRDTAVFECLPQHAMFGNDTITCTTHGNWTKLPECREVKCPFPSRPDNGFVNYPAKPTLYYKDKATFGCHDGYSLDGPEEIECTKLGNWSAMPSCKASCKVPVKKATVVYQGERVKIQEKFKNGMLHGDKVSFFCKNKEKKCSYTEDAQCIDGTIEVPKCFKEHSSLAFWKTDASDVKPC
Protocol: At the 6 mg/kg dose, β2GPI levels fell by 40% relative to the pretreatment levels, to approximately the lower limit of the normal range.

[7] = test system: previously-treated Stage IIIb/IV non-squamous NSCLC; experiment: Phase III trial of bavituximab plus docetaxel in NSCLC; conditions: functional β2GPI ≥200 μg/mL
From the text: This global, double-blind Phase III trial was initiated in 2012. Selection criteria were for patients with Stage IIIb/IV non-squamous NSCLC who progressed on platinum-doublet chemotherapy (should have progressed on appropriate targeted therapy if known EGFR or ALK mutation), with ECOG PS 0-1 and prior immunotherapy allowed (ECOG is the performance status scale defined by the Eastern Cooperative Oncology Group). […] The primary endpoint was overall survival (OS) and secondary endpoints included objective response rate (Independent Central Review, ICR), progression-free survival (ICR), safety, PK, Quality of Life (LCSS) and exploratory biomarkers, including immune correlates.
OS was analyzed by VeriStrat subgroups using Kaplan-Meier statistical methods.
A single cutoff method was first used to assess the patient β2GPI data.
The initial analyses described above prompted further, extensive analyses of the data in 592 evaluable patients. These analyses used a two cutoff method (Klein & Moeschberger, 2003).
Archival tissue obtained at the time of diagnosis was requested, but not required, in the Phase III trial of Example X. Formalin-fixed paraffin-embedded (FFPE) slides were stained with antibodies for a panel of lymphoid (or tumor) cell markers, as described in Feng et al., 2015: CD3+, CD8+, FoxP3+, PD-L1+, CD163+ and CK+ (cytokeratin, an epithelial carcinoma marker) using a mutliplex (6-plex) quantitative immunohistochemistry (IHC) assay (OPAL®, PerkinElmer, Waltham, Mass., USA) and using DAPI. The PD-L1 antibody used was the rabbit anti-PD-L1 antibody termed E1L3N® XP® (Cell Signaling Technology, (CST), Danvers, Mass., Catalogue #13684; Mahoney et al., 2015). Baseline PD-L1 expression was retrospectively scored on tumor cells (TC, i.e., CK+) and PD-L1 expressing tumor cells were classified according to their percentage within the total number of tumor cells using established assays and classifications (Fehrenbacher et al., 2016), as follows: TC3≥50%; TC2≥5% and ≤50%; TC1≥1% and <5%; and TC0<1%. Cox regression models for PD-L1 IHC subgroup populations were used for correlation with OS.
Kaplan-Meier statistical methods and Cox proportional hazard models were utilized to evaluate and contrast the correlation of peripheral (and intratumoral) IFNγ levels with OS based on a data cut from the Phase III trial (Example X) dated Feb.

[8] = Phase I dose escalation study of bavituximab monotherapy in refractory advanced solid tumors: PK, safety; conditions: for AUCinf / Cmax / t1/2 / CL: Mean (CV %)
Protocol: Samples were collected from patients in the 0.1 and 0.3 mg/kg dose cohorts before the study, on days 0, 1, 2, 4, 7, 10, 14, and every 7 days from days 21 to 70. Samples were collected from patients in the 1 and 3 mg/kg dose cohorts before the study, on days 0, 1, 2, 4, 7, 14, 21, 22, 23, 25, and every 7 days from days 28 to 56.

[9] = 3 mg/kg weekly with paclitaxel, 14 patients
[10] = ITT, all with docetaxel, Bavituximab arm 3 mg/kg

bavituximab
binding to PS in ELISA in the absence of serum (PS [1]; antibody expressed in CHO cells under serum-free conditions): binding to PS was lost
binding to phospholipids in standard ELISA (PS [1]; phospholipid-coated ELISA plates): bound at least as well as the murine 3G4
in vivo localization and effects (tumors): localize to tumor vascular endothelium and to exert anti-tumor effects and anti-viral effects
effect on β2GPI in the systemic circulation ([2]; 100 mg/kg): transiently decreased β2GPI in the systemic circulation
doses safely administered ([2]; doses above 10 mg/kg): up to 100 mg/kg
median progression-free survival (PFS) ([3]; 3 mg/kg weekly with paclitaxel): 7.3 months
overall response rate (ORR) [3, 9]: 85%
patients having a complete response [3, 9]: 2 patients
tolerability ([3]; in combination with paclitaxel): well tolerated
most common adverse events ([3]; with paclitaxel): Bone pain, fatigue, headache and neutropenia
thrombogenicity ([3]; with paclitaxel): no evidence for increased thrombogenicity
mOS ([4]; functional β2GPI less than 200 μg/mL): 5.3 months
mOS ([4]; functional β2GPI ≥200 μg/mL): 7.4 months
ORR greater than combined group by ([5]; 3 mg/kg): approximately 50%
median OS longer than combined group by ([5]; 3 mg/kg): approximately 60%
Deaths [5, 10]: 53.7%
Number of Deaths [5, 10]: 22
Overall Response Rate (CR + PR) ([5]; ITT, central review, all with docetaxel, Bavituximab arm 3 mg/kg): 17.1%
pharmacokinetic drug-drug interaction ([5]; PK sub-study, 6 patients per arm, cycles 1 and 2): No clinically relevant pharmacokinetic drug-drug interaction was observed
mOS ([5]; functional β2GPI less than 200 μg/mL, bavituximab 3 mg/kg with docetaxel): 9.4 months
mOS ([5]; functional β2GPI ≥200 μg/mL, bavituximab 3 mg/kg, all with docetaxel): 16.8 months
binding to anionic phospholipids (PS, PI, PA, PG, CL) (PS [6]): bind strongly to anionic phospholipids
change of β2GPI levels (β2GPI; 1 mg/kg): virtually unchanged
time for β2GPI to return to pre-treatment level (β2GPI; 3 mg/kg): ≤ 24 h
time for β2GPI to recover to baseline (β2GPI; 6 mg/kg): 3 days
mOS ([7]; with subsequent IO): has yet to be reached
mOS ([7]; without subsequent IO): 10.5 months
PK linearity ([8]; 0.1 to 3 mg/kg): linear single-dose (day 0) and multiple-dose (days 21 or 42) PK characteristics
maximum tolerated dose ([8]; 0.1 to 3 mg/kg weekly): No maximum tolerated dose was reached
AUCinf ([8]; Day 0, 0.1 mg/kg, N=8): 113 (50.1) d μg/mL
Cmax ([8]; Day 0, 0.1 mg/kg, N=8): 2.11 (27.3) μg/mL
t1/2 ([8]; Day 0, 0.1 mg/kg, N=8): 43.9 (48.5) h
AUCinf ([8]; Day 0, 0.3 mg/kg, N=6): 241 (39.8) d μg/mL
Cmax ([8]; Day 0, 0.3 mg/kg, N=6): 5.13 (42.4) μg/mL
t1/2 ([8]; Day 0, 0.3 mg/kg, N=6): 39.8 (34.1) h
AUCinf ([8]; Day 0, 1.0 mg/kg, N=6): 966 (30.0) d μg/mL
Cmax ([8]; Day 0, 1.0 mg/kg, N=6): 16.6 (30.9) μg/mL
t1/2 ([8]; Day 0, 1.0 mg/kg, N=6): 40.3 (20.2) h
AUCinf ([8]; Day 0, 3.0 mg/kg, N=6): 3,017 (50.3) d μg/mL
Cmax ([8]; Day 0, 3.0 mg/kg, N=6): 56.4 µg/mL
t1/2 ([8]; Day 0, 3.0 mg/kg, N=6): 37.2 (34.5) h
AUCinf ([8]; Day 21, 1.0 mg/kg weekly, N=6): 1,053 (38.0) d μg/mL
CL ([8]; Day 21, 1.0 mg/kg weekly, N=6): 1.12 (52.1) mL/kg/d
Cmax ([8]; Day 21, 1.0 mg/kg weekly, N=6): 18.7 (31.8) μg/mL
t1/2 ([8]; Day 21, 1.0 mg/kg weekly, N=6): 46.8 (38.4) h
AUCinf ([8]; Day 21, 3.0 mg/kg weekly, N=4): 2,672 (63.4) d μg/mL
CL ([8]; Day 21, 3.0 mg/kg weekly, N=4): 1.51 (61.4) mL/kg/d
Cmax ([8]; Day 21, 3.0 mg/kg weekly, N=4): 59.6 (27.6) μg/mL
t1/2 ([8]; Day 21, 3.0 mg/kg weekly, N=4): 46.0 (44.4) h
time concentration remained above 2 μg/mL ([8]; dose of 1 mg/kg): 6 days
time concentration remained above 2 μg/mL ([8]; dose of 3 mg/kg): 7 days
